According to patent US20090291088A1, “THERAPEUTIC COMBINATIONS OF ANTI-IGF-1R ANTIBODIES AND OTHER COMPOUNDS” (Biogen Idec MA Inc., priority 2008, published 2009):

Columns and labels:
[1] = target: T1, IGF-1R (Homo sapiens, UniProt P08069); assay: Ligand blocking assay (RIA): 125I-IGF-1 / 125I-IGF-2 binding to immobilized IGF-1R; conditions: for blocking of IGF-1 and IGF-2 binding to IGF-1R: 100 nM-0.01 nM antibody, IGF-1R-Fc; for IGF Blocking IGF-1 / IGF Blocking IGF-2: Fabs; for IGF Blocking IGF-1: 125I-IGF-1; for IGF Blocking IGF-2: 125I-IGF-2
T1 construct: human IGF-1R(1-903)-Fc (denoted hIGF-1R-Fc, generated by Biogen Idec)
Source text: Ligand blocking assay (RIA). […] Insulin (Arg-Insulin, Cat #01-207) was purchased from Upstate Cell Signaling Solutions (Lake Placid, N.Y. (now part of Millipore, Concord, Mass. (USA)). ^125I-rhIGF-1 (Cat # IM172), ^125I-rhIGF-2 (Cat# IM238) and ^125I-rhInsulin (Cat# IM166) were purchased from Amersham Biosciences (Piscataway, N.J.). AffiPure goat anti-human IgG, Fcγ fragment specific antibodies (Cat #109-005-098, Jackson ImmunoResearch, West Grove, Pa.) was used for IGF-1R-Fc capture. As detection antibody, goat anti-mouse IgG HRP (Cat #1030-05, Southern Biotech Birmingham, Ala.) was used.
Human insulin receptor α-subunit specific antibodies, Clone 83-14, (Cat #AHR0221, Biosource International, Inc., Camarillo, Calif.) and the 47-9 (Cat #E55502M, Biodesign International, Saco, M E) were used as positive controls blocking of insulin-insulin receptor binding experiments. Recombinant IGF-1R-Fc fusion protein was produced at Biogen Idec (Cambridge, Mass.).
As isotype matched mouse negative control antibodies, 2B8 (murine α-CD20.1gG,) and 2B8 mkm.G2a (murine α-CD20 MAb, IgG2a, Biogen Idec, Lot #NB3304-87, San Diego, Calif.) were used. The negative control for Fabs was R001-1B provided by Christilyn Graff (Biogen Idec, Cambridge, Mass.). PBS used in buffers was from BioWhittaker (Cat. # 17-513F, Walkersville, Md.).
Recombinant human IGF-1R (Histidine tagged version) or IGF-1R-Fc was coated onto IMMULON2 HB (high binding) Removawell strips (Dynex Technologies, Inc., cat. #6302) diluted with carbonate coating buffer pH 9.5 to a concentration of 250 ng/well. After overnight incubation at 4° C., the wells were washed three times with washing buffer (0.05% Tween 20/PBS) then blocked with blocking buffer (3% BSA/PBS) for one hour at room temperature. The blocking buffer was removed and the wells washed three more times. Antibody, Fab, or ligand preparations were diluted to desired concentration with dilution buffer (1% BSA/0.05% Tween 20/PBS) and plated at 50 μl per well in duplicate. After 45 minutes at room temperature, 100,000 cpm of either [125I] rhIGF-1 or [125I] rhIGF-2 in 50 μl dilution buffer was added per well. This was incubated at room temperature for one more hour. The wells were washed again three more times and left liquid free after the last wash. The air-dried wells were counted with the Isodata Gamma Counter.
Alternatively, Fabs were evaluated by a modified capture assay, where the IGF-1R-Fc was captured using anti-human IgG immobilized to a plate. Immobilization was carried out by overnight incubation of goat anti-human IgG, Fcγ fragment specific antibody (200 ng/well) in carbonate coating buffer. The wells were washed, blocked and 250 ng of IGF-1R-Fc was added per well.
The ligand blocking ability of the anti-IGF-1R antibody was determined by a solid phase RIA capture method as described in Example 3. […] After 1 hour of incubation at room temperature, the wells were washed and counted for bound radioactivity by a Gamma Counter. An isotype matched negative antibody control, IDEC-151 (human G4), was used. Percent (%) inhibition was calculated as =[1−(Ave.CPM with Ab)/(Ave.CPM with buffer)]×100%.

[2] = target: T2, IGF-1R phosphorylation (Homo sapiens, UniProt P08069); assay: Inhibition of IGF-1 and IGF-2 mediated IGF-1R phosphorylation in MCF-7 cells (ELISA); assay type: cell-based; conditions: Fabs, MCF-7; for Inhibition of IGF-1R Phosphorylation IGF-1: IGF-1 stimulated; for Inhibition of IGF-1R Phosphorylation IGF-2: IGF-2 stimulated
T2 construct: wild type IGF-1R expressed on MCF-7 tumor cells; endogenous in cells; host or cells: MCF-7
Experimental: Cell lines: IGF1R expressing human breast carcinoma cell line MCF-7 (NCI) were maintained at 37° C. and 5% CO2 in MEM eagle (ATCC) containing 10% FBS, 1× non-essential amino acids, 2 mM L-glutamine, 1 mM sodium pyruvate and 1000 U/ml penicillin and streptomycin. Cells were sub-cultured twice weekly for maintenance and assay, and used with a maximum of 12 passages.
MCF-7 cells were plated in 2 ml growth media at 2×10^5 to 4.0×10^5 cells/well in Ploy-D-Lysine coated 12 well plates (BD Biosciences, #35-6470) and cultured at 37° C., 5% CO2. At 48 hours, media removed and cells serum starved overnight at 37° C., 5% CO2 Serum free media was removed and control or test antibodies at indicated concentration were added in 350 ul of fresh serum free media and incubated for 1 hour at room temperature, or alternately at 37° C. Fabs were tested at 200 nM, 20 nM and 2 nM concentration and the mAbs were tested at 67, 6.7 and 0.67 nM. The commercial anti-IGF-1R control antibody used was αIR3 (EMD biosciences, Oncogene Research products, #D27249). […] Ligand was incubated at […] for 37° C. antibody experiments. Cells were lysed in 1× cell lysis buffer (Cell Signal Technologies, #9803) with 1 mM PMSF for 1 hour at room temperature.
Cell lysates were added to ELISA plates pre-coated with IGF-1Rp antibody (Clone 1-2, Biosource International, #AHR0361) and incubated for 2 hours. Following which plates were washed and the plate bound phosphorylated receptor was detected with the biotin labeled anti-phosphotyrosine antibody 4G10 (Catalog #16-103, Upstate Cell Signaling Solutions (Lake Placid, N.Y. (now part of Millipore, Concord, Mass. (USA)) and streptavidin-HRP (BD Pharmingen, #554066). Assay is developed by addition of TMB substrate (Kierkegaard & Perry, #50-76-00) and color stopped by addition of […] (LabChem, Cat#LC25830-1). Optical density is measured at 450 nm using a Molecular Devices plate reader and percent inhibition over the ligand control is calculated for each antibody-ligand sample.
The effect of human anti-IGF-1R antibodies on IGF-1R signaling was evaluated using MCF-7 cells (human breast adenocarcinoma cells).

B1: M12-E01.G4.P: full-length human IgG4.P version of Fab M12-E01 (antibody, V domains shown)
VH: EVQLLESGGGLVQPGGSLRLSCAASGFTFSPYSMLWVRQAPGKGLEWVSSIGSSGGSTRYADSVKGRFTISRDNSKNTLYLQMNSLRAEDTAMYYCARVRGILHYDILIGRNLYYYYMDVWGKGTTVTVSS
VL: QYELTQPPSVSEAPRQRVTISCSGSSSNIGNNAINWYQQLPGKPPKLLIYYDDLLPSGVSDRFSGSKSGTSGSLAISGLQSEDEADYYCAAWDDNLNGVIFGGGTKLTVL
[1]
  blocking of IGF-1 and IGF-2 binding to IGF-1R: block both IGF-1 and IGF-2 binding

B2: M12-G04.G4.P: full-length human IgG4.P version of Fab M12-G04 (antibody, V domains shown)
VH: EVQLLESGGGLVQPGGSLRLSCAASGFTFSKYTMHWVRQAPGKGLEWVSSIVSSGGWTDYADSVKGRFTISRDNSKNTLYLQMNSLRAEDTAVYYCARDRSIAAAGTGWSVSFVDWFDPWGQGTLVTVSS
VL: DIQMTQSPLSLSASVGDRVTITCRASQSINGYLNWYQQKPGKAPNLLIYATSSLQSGVPSRFSGSGSGTDFTLTISSLQPEDFATYYCQQSYSTPPYTFGQGTKLEIK
[1]
  blocking of IGF-1 and IGF-2 binding to IGF-1R: block both IGF-1 and IGF-2 binding

B3: Fab M12-G04: human anti-human IGF-1R Fab from phage display library; VH SEQ ID NO:9, VL SEQ ID NO:73 (antibody, V domains shown)
VH: EVQLLESGGGLVQPGGSLRLSCAASGFTFSKYTMHWVRQAPGKGLEWVSSIVSSGGWTDYADSVKGRFTISRDNSKNTLYLQMNSLRAEDTAVYYCARDRSIAAAGTGWSVSFVDWFDPWGQGTLVTVSS
VL: DIQMTQSPLSLSASVGDRVTITCRASQSINGYLNWYQQKPGKAPNLLIYATSSLQSGVPSRFSGSGSGTDFTLTISSLQPEDFATYYCQQSYSTPPYTFGQGTKLEIK
modifications: Antibody variable heavy chain sequence; Antibody variable light chain sequence
[2]
  Inhibition of IGF-1R Phosphorylation IGF-1: + (>30%@10 ug/ml)
  Inhibition of IGF-1R Phosphorylation IGF-2: + (>30%@10 ug/ml)
[1]
  IGF Blocking IGF-1: + (>30%@10ug/ml)
  IGF Blocking IGF-2: + (>30%@10ug/ml)

B4: M14-C03.G4.P: full-length human IgG4.P version of Fab M14-C03 (antibody, V domains shown)
VH: EVQLLESGGGLVQPGGSLRLSCAASGFTFSKYMMSWVRQAPGKGLEWVSYISPSGGLTWYADSVKGRFTISRDNSKNTLYLQMNSLRAEDTAVYYCARDGARGYGMDVWGQGTTVTVSS
VL: DIQMTQSPATLSLSPGERATLSCRASQSVSSYLAWYQQKPGQAPRLLIYDASNRATGIPARFSGSGSGTDFTLTISSLEPEDFAVYYCQQRSNWPPEVTFGPGTKVDIK
[1]
  blocking of IGF-1 and IGF-2 binding to IGF-1R: blocked only IGF-2 binding

B5: Fab M14-B01: human anti-human IGF-1R Fab from phage display library; VH SEQ ID NO:20, VL SEQ ID NO:83 (antibody, V domains shown)
VH: EVQLLESGGGLVQPGGSLRLSCAASGFTFSNYHMAWVRQAPGKGLEWVSVISPTGGRTTYADSVKGRFTISRDNSKNTLYLQMNSLRAEDTATYYCARAGYSYGYGYFDYWGQGTLVTVSS
VL: DIQMTQFPATLSVSPGERATLSCRASQSVMRNLAWYQQKPGQPPRLLIYGASKRATGIPARFSGSGSGTAFTLTISNLEPEDFAVYYCHQRSTWPLGTFGPGTKLEAK
modifications: Antibody variable heavy chain sequence; Antibody variable light chain sequence
[2]
  Inhibition of IGF-1R Phosphorylation IGF-1: ++ (>30%@1ug/ml)
  Inhibition of IGF-1R Phosphorylation IGF-2: ++ (>30%@1ug/ml)
[1]
  IGF Blocking IGF-1: ++ (>30%@1ug/ml)
  IGF Blocking IGF-2: ++ (>30%@1ug/ml)
